# Test results reported in patent US7097843.
# Target: recombinant HLA-A*0201 refolded with purified human beta2-microglobulin (human)
# Assay: circular dichroism melting of the refolded peptide-HLA-b2m complex (temperature at which 50% is melted)
row,Binder,Tm
1,LLMGTLGIVCPIC (modifications not checked) [peptide A2.1/4],41 °C
2,TLGIVCPIC (modifications not checked) [peptide A2.4],41.5 °C
3,YMLDLQPET (modifications not checked) [peptide A2.2],52.5 °C
